Laboratory results published in patent US20180030136A1 (GlaxoSmithKline, published 2018).
Each block holds one binder with its values, some of them ahead of it.

Assays:
cynomolgus ICOS = molecular target: T1, cynomolgus ICOS (cynomolgus); assay: Biacore, cyno ICOS
T1 construct: also called cyno ICOS; Biacore cyno

Cyno ICOS-Fc = molecular target: T2, Cyno ICOS-Fc (cynomolgus; rabbit); assay: BIAcore T200, antibody captured on anti-human IgG, ICOS (rabbit Fc) as analyte, 25 C, 1:1 model
T2 construct: also called cyno ICOS (rabbit Fc)
Experimental: The binding kinetics affinity of the humanized H2L5 hIgG4PE antibody was determined used the BIAcore T200Anti-human IgG on Fc2 of a CM5 chip Anti-ICOS H2L5 hIgG4PE captured on the surface. Anti-human IgG surface blocked with 0.1 mg/mL hIgG1 control to prevent non-specific binding of rabbit Fc. Human and cyno ICOS (rabbit Fc) passed over the captured antibodies at 256 nM, 64 nM, 16 nM, 4 nM and 1 nM. Buffer alone was used to double reference binding curves. MgCl₂ was used to regenerate surface. Run carried out at 25° C. Data fitted to 1:1 model using T200 evaluation software. Antibody concentration: 2.5 μg/mL
The ICOS binding data was fitted to a 1:1 kinetics model using the T200 data analysis software.

human ICOS on cells = molecular target: T3, human ICOS on cells (human, UniProt Q9Y6W8 21-167); assay: cell-based or functional assay
T3 sequence: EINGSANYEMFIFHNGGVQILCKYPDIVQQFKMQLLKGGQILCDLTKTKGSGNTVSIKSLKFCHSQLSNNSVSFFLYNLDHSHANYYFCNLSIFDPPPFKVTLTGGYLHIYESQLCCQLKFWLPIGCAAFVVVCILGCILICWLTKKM

Kd (cynomolgus ICOS): 23 nM
B1: ICOS mAb clone 88.2 (antibody, V domains shown)
VH: QVQLQQPGAELVRPGASVKLSCKASGYSFTSYWINWVKQRPGQGLEWIGNIYPSDSYTNYNQMFKDKATLTVDKSSNTAYMQLTSPTSEDSAVYYCTRWNLSYYFDNNYYLDYWGQGTTLTVSS
VL: QAVVTQESALTTSPGETVTLTCRSSTGAVTTSNYANWVQEKPDHLFTGLIGGTNNRAPGVPARFSGSLIGDKAALTITGAQTEDEAIYFCALWYNNHLVFGGGTKLTVL
notes: murine anti-human ICOS mAb

Kd (cynomolgus ICOS): 4.46 nM
B2: ICOS mAb clone 422.2 (antibody, V domains shown)
VH: QVQLQQSGPELVRPGESVKISCMGSGYTFTDYAMHWVKQSHAKSLEWIGLISIYSDHTNYNQKFQGKATMTVDKSSSTAYMELARLTSEDSAIYYCGRNNYGNYGWYFDVWGAGTTVTVSS
VL: ENVLTQSPAIMSASPGEKVTMTCSASSSVSYMHWYQQKSITSPKLWIYDTSKLASGVPGRFSGSGSGNSYSLTISSMEAEDVATYYCFQGSGYPYTFGGGTKLEIKR
notes: murine hybridoma mAb

Kd (Cyno ICOS-Fc): 0.949 nM
koff (Cyno ICOS-Fc): 0.000371 s⁻¹
kon (Cyno ICOS-Fc): 391000 M⁻¹ s⁻¹
EC50 CD8+OX40+, donor 1149M52, 24 hr (human ICOS on cells): 1.5 µg/mL
EC50 IFN-γ, donor 1136F50, 48 hr (human ICOS on cells): 1.5 µg/mL
B3: H2L5 hIgG4PE (antibody)
heavy: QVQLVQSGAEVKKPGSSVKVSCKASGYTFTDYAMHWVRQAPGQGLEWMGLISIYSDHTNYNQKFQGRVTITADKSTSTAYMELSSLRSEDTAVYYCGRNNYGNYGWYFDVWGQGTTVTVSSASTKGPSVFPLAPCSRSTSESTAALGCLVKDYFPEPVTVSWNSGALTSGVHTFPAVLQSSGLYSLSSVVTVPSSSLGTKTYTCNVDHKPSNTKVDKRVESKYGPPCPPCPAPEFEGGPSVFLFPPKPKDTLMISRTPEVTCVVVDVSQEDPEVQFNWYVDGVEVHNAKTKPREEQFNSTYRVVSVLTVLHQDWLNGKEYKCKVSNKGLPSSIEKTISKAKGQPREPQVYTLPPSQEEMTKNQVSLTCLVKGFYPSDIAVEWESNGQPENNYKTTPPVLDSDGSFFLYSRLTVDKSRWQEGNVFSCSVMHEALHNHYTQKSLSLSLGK
light: EIVLTQSPATLSLSPGERATLSCSASSSVSYMHWYQQKPGQAPRLLIYDTSKLASGIPARFSGSGSGTDYTLTISSLEPEDFAVYYCFQGSGYPYTFGQGTKLEIKRTVAAPSVFIFPPSDEQLKSGTASVVCLLNNFYPREAKVQWKVDNALQSGNSQESVTEQDSKDSTYSLSSTLTLSKADYEKHKVYACEVTHQGLSSPVTKSFNRGEC
notes: also called H2L5 IgG4PE; copies: 2 + 2
